The record followed here is patent US20240342207, “MODIFIED NUCLEIC ACID COMPOSITIONS AND ASSOCIATED METHODS FOR TREATMENT OF PHENYLKETONURIA” (BOARD OF REGENTS, THE UNIVERSITY OF TEXAS SYSTEM, published 2024).

Data set [1] concerns the target T1, PAH (phenylalanine hydroxylase), wild type (Homo sapiens, UniProt P00439 P00439:1-452).
T1 sequence: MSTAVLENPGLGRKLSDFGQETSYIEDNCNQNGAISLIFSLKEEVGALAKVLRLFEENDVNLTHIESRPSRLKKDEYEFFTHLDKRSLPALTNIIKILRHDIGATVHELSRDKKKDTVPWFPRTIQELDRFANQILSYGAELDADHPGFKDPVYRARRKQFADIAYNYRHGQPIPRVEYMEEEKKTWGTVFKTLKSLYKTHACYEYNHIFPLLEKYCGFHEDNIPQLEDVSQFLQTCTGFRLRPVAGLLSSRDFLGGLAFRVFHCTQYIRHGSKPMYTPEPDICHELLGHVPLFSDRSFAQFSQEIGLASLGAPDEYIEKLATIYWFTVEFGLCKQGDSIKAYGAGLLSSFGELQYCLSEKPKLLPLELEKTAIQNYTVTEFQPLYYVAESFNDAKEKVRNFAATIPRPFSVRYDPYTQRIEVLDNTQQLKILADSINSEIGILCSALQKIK
As to the kind of experiment: EMSA; 5 mM MgCl2, 100 mM KCl, 30 C. The note with it: tags: His-tag, pET-DEST42, E. coli BL21-CodonPlus (DE3)-RIPL, cobalt resin, label: 32P. As for the experimental part: RNA Electrophoretic Mobility Shift Assay (EMSA). The gel mobility shift assay was performed as previously described (42). Briefly, 500 ng recombinant His-tagged wild-type PAH or mutants were incubated with 0.035 μmol labeled probe in a RNA-protein binding buffer [(50 mM Tris-HCl 7.9, 10% glycerol, 100 mM KCl, 5 mM MgCl₂, 10 mM (3-ME, 0.1% NP40] for 30 min at 30° C. For cold RNA competition, 0.035 μmol radiolabeled RNA probes were first mixed with 7 μmol cold RNA competitors and then subjected to the gel shift assay.

The target in data set [2] is T1, PAH (phenylalanine hydroxylase), wild …. As to the kind of experiment: affinity similar to full-length HULC. The note with it: tags: His-tag, pET-DEST42, E. coli BL21-CodonPlus (DE3)-RIPL, cobalt resin.
The target is the same in data set [3]. The data set can be described thus: mutant mimic abolished interaction. The note with it: tags: His-tag, pET-DEST42, E. coli BL21-CodonPlus (DE3)-RIPL, cobalt resin.

With CCAAAAUGCAUGUGUAUCUUUGG (ssRNA) [HULC 180-202 mutant EMSA probe], in data set [1], the binding result is on record as “no binding”.

Regarding CAAAATGCATATGTATCTTTG (XNA, 2'-F at all nucleotides) [HULC mimic, 2'-F], in data set [2], the binding result is reported as “binds”.

As for GGUGAGCUGCGUAUAGCUCGUC (ssRNA) [Pair 467-488 WT EMSA probe], the binding result in data set [1] (stem-loop) was “binds”.

With CAAAATGCATGTGTATCTTTG (XNA, 2'-F at all nucleotides) [HULC mutant mimic, 2'-F (A191G)], the binding result in data set [3] is listed as “no binding”.

Turning to GGUGAGCUGCGUGUAGCUCGUC (ssRNA) [Pair 467-488 mutant EMSA probe], the binding result in data set [1] is listed as “no binding”.

Take CCAAAAUGCAUAUGUAUCUUUGG (ssRNA) [HULC 180-202 WT EMSA probe]: the binding result in data set [1] (stem-loop) is “binds”.
